Source: patent US12630850B2, “Enzymatic break down of chlorogenic acid in sunflower-containing products” (Chapman University, priority 2022, dated 2026)

Test: HPLC quantification of CGA in sunflower flour cookies
Format: biochemical
Conditions: SFF cookies; 0.09 mg/g flour, pre- and direct treatment
Excerpt: Cookie formulations and baking conditions. The cookie dough formulation consisted of baking soda (2.2 g), salt (2.2 g), whole egg (46.8 g), maple syrup (76.3 g), vanilla extract (2.2 g), flour (145.8 g), and butter (87.5 g). CGA esterase treatments in SFF, utilized almond butter instead of SFB. The wet (sunflower or almond butter, maple syrup, eggs, and vanilla extract) and dry (flour, baking soda, and salt) ingredients were mixed separately and subsequently combined and mixed for 75 s with an electric hand mixer. The dough was rolled out and cut to the following dimensions: 6 mm thickness and 40 mm diameter. Cookies were baked for 7 min in a convection oven preheated to 149° C. (300° F.) and allowed to cool at room temperature for 10 min before further analysis.
Preparation of sunflower flour cookies with CGA esterase. […]
High-performance liquid chromatography (HPLC) quantification of phenolic content in sunflower cookies. […] The extract was filtered through 0.20 μm syringe filters and analyzed with an Agilent 1260 Infinity II system (Agilent Technologies) equipped with a quaternary pump (G7111B), vial sampler (G7129A), and diode array detector (HS G7117C). […] CGA and caffeic acid concentrations were detected at 320 nm and quantified using a standard curve between 0.00-0.10 mg ml^−1 CGA (y=172287x, R^2=0.994) and caffeic acid (y=248557x, R^2=0.967).

Effect of enzyme addition on CGA: nearly complete elimination of CGA
B1: CGA esterase: CGA esterase from L. helveticus (Genbank ID: WP_025283955.1, Uniprot ID: U6F2K7), expressed in Escherichia coli; the dimer is the active form (protein, listed as Lactobacillus helveticus)
chain: MSRITIERDGLTLVGDREEPFGEIYDMAIIMHGFAANRNTDLLRQIADDLRDENVASVRFDFNGHGESDGKFEDMTVCNEIADGKAILDYVRTDPHVRDIFLVGHSQGGVVASMLAGLYPDVVKKVVLLAPAAQLKDDALRSNTQGATYDPNHIPDWPLVGNKLGMKLGGFYLRTAQVLPIYEVSQCFTRPVSVIAGTNDQWDPKYAKKYDEVYENSELHMIPNADHRFSGGYKDMAADLTAQFLKPAF
